{
  "source": "patent US9539315B2",
  "about": "“Methods, agents and peptides for inhibiting matrix metalloproteinase-2 signaling” (New York University, priority 2011, dated 2017)",
  "key": {"human TLR-2": {"target": "T1, human TLR-2 (Homo sapiens, UniProt O60603)", "T1 construct": "host or cells: HEK293 (HEK-Blue-hTLR2 cells)", "T1 sequence (O60603 21-784)": "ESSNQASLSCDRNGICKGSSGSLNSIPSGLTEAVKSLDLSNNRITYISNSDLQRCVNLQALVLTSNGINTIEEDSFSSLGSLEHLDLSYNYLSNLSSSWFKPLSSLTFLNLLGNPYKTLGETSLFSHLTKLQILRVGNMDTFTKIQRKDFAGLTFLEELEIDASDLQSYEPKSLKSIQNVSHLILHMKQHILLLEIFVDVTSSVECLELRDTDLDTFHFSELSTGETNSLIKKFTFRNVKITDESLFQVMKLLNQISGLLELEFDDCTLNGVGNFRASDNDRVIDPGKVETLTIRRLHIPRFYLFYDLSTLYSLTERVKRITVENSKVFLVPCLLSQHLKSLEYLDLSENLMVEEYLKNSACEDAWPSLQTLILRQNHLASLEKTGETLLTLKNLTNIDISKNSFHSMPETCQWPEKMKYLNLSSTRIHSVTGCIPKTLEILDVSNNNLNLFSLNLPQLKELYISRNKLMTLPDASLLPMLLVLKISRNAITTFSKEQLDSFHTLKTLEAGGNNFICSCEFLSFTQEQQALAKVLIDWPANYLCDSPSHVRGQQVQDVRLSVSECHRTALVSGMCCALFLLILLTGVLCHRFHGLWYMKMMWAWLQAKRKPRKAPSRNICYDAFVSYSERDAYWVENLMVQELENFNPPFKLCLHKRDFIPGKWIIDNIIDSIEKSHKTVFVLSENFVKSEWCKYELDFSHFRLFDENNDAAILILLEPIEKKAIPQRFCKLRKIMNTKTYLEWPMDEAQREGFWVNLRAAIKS", "assay": "HEK-Blue-hTLR2 NF-κB SEAP reporter assay", "type": "cell-based", "details": "MMP-2 5 mg/ml; twenty hours; with/without TLR2 blocking antibody", "protocol": "(§1) A) DCs were exposed to various TLR agonists for 2 days before cells were stained for OX40L. […] B) TLR2-transfected and engineered HEK cells were incubated with MMP-2 (5 mg/ml) or various controls. All conditions were also tested in the presence of a blocking antibody for TLR2. TNFα was used to activate NF-κB in a TLR-independent manner. Twenty hours later, NF-κB activation was measured.\nTLR2-transfected and engineered HEK cells were incubated with MMP-2 (5 mg/ml), TLR2 agonists, recombinant PEX and 3 pools of overlapping 20-mers covering MMP-2. OLP1: mix of 22 overlapping peptides covering MMP-2 from amino-acid 1 to 220; OLP2: mix of 22 overlapping peptides covering MMP-2 from amino-acid 210 to 440; OLP3: mix of 22 overlapping peptides covering MMP-2 from amino-acid 450 to 660. Twenty hours later, NF-κB activation was measured. Neither PEX nor the peptides triggered NF-κB signaling.\nTLR-2-transfected (stably) HEK-Blue™ Cells represent a very efficient high throughput reagent for screening due to an easy read-out. […] Levels of SEAP can be readily determined with QUANTI-Blue™, a detection medium that turns purple/blue in the presence of alkaline phosphatase. […] Inhibition of NF-κB activation by any agents/molecules can be assessed and confirmed in DCs (which endogenously express TLR2 or are engineered to express exogenous TLR2) in order to corroborate the initial screening results in a native or more natural context. […] TLR-2-expressing cells, such as those described herein, can be incubated with agents/molecules and molecular interactions assessed using methods, such as, e.g., co-immunoprecipitation of MMP-2 and TLR-2 from the cell lysates. […] Additional methods can be used to evaluate if MMP-2 and TLR-2 interact directly, including other affinity-based methods (e.g., affinity chromatography or panning), competitive inhibition assays, and various visualization techniques, such as fluorescence resonance energy transfer (FRET) and others which are known in the art. […]"}, "OX40L": {"test_system": "OX40L", "assay": "OX40L expression on DCs (staining)", "type": "cell-based, human", "details": "DCs exposed for 2 days, stained for OX40L", "protocol": "A) DCs were exposed to MMP-2 […] or zymosan […], a known activator of NF-κB that acts via TLR2, for the indicated time. Cytosolic and nuclear fractions were isolated and p50 contents were measured by ELISA. […] C) OX40L over-expression on DCs induced by MMP-2 is inhibited by an inhibitor of NEMO, the NEMO binding domain (NBD) peptide, but not by the corresponding negative control, a NBD mutant.\nas §1\nAntibody to OX40L (11C3.1) was from Biolegend. Blocking antibodies to TLR-2 and TLR-6 were from Invivogen. Antibodies to GATA-3, IL-4 (8D4-8), IL-5 (JES1-39D10), IL-13 (JES10-5A2), TNFα (MAb11), IFNγ (25723.11), perforin (δG9), GranzymeB (GB11), CD40 (5C3), CD80 (L307.4), CD83 (HB15e), CD86 (IT2.2), HLA-DR (TU36), fluorescein isothiocyanate-conjugated antibodies to CD45RA (HI100) and CD45RO (UCHL1), and antibody to CD4 (RPA-T4) were purchased from BD Biosciences Pharmingen. Alexa fluor 488-conjugated antibody to IL-17 (eBio64DEC17), phycoerythrine-conjugated antibody to T-bet (4B10).\nPBMCs were purified from healthy-(HD) or cord blood- (CB) donors and plated at 40×10^6 cells/10 mL/dish in complete IMDM with 5% PHS. Cells were allowed to adhere for 2 h at 37° C. Non-adherent cells were removed. The monocyte-enriched fraction was supplemented with 100 UI/mL rhGMCSF and 300 UI/mL rhIL-4 (R&D Systems) on days 0, 2 and 4. Immature DCs were harvested on day 5 and matured using poly(I:C) at 5 μg/mL/10^6 DCs (Amersham). Secretion of IL-12p70, TNFα, IL-1β, IL-6, IL-8 and IL-10 was assessed on both immature and mature DCs using the Human Inflammatory Cytokine Cytometric Bead Array (BD Pharmingen)."}},
  "note": "Entries after “also recorded” stand apart in the source; their conditions may differ.",
  "data": [
    {"molecule": "matrix metalloproteinase-2 (protein) YNFFPRKPKWDKNQITYRIIGYTPDLDPETVDDAFARAFQVWSDVTPLRFSRIHDGEADIMINFGRWEHGDGYPFDGKDGLLAHAFAPGTGVGGDSHFDDDELWTLGEGQVVRVKYGNADGEYCKFPFLFNGKEYNSCTDTGRSDGFLWCSTTYNFEKDGKYGFCPHEALFTMGGNAEGQPCKFPFRFQGTSYDSCTTEGRTDGYRWCGTTEDYDRDKKYGFCPETAMSTVGGNSEGAPCVFPFTFLGNKYESCTSAGRSDGKMWCATTANYDDDRKWGFCPDQGYSLFLVAAHEFGHAMGLEHSQDPGALMAPIYTYTKNFRLSQDDIKGIQELYGASPDIDLGTGPTPTLGPVTPEICKQDIVFDGIAQIRGEIFFFKDRFIWRTVTPRDKPMGPLLVATFWPELPEKIDAVYEAPQEEKAVFFAGNEYWIYSASTLERGYPKPLTSLGLPPDVQRVDAAFNWSKNKKTYIFAGDKFWRYNEVKKKMDPGFPKLIADAWNAIPDNLDAVVDLQGGGHSYFFKGAYYLKLENQSLKSVKFGSIKSDWLGC", "values": [
      {"measurement": "NF-κB activation in TLR2-transfected HEK cells", "setting": "human TLR-2", "value": "activates NF-κB through TLR-2 triggering; also recorded: activate NF-κB in a TLR2-dependent manner"},
      {"measurement": "OX40L expression on DCs", "setting": "OX40L", "value": "induce OX40L expression"}
    ]}
  ]
}
